Reference: paper PMC7027753, “Interaction of N‐acetyl‐L‐glutamate kinase with the PII signal transducer in the non‐photosynthetic alga Polytomella parva: Co‐evolution towards a hetero‐oligomeric enzyme” (The Febs Journal, 2019)
Values belong to the molecule of their own block, whether it stands above or below them.

Columns and labels:
CrNAGK = target: T1, CrNAGK (Chlamydomonas reinhardtii, UniProt A8HPI1); assay: coupled pyruvate kinase / lactate dehydrogenase NADH assay, […] nm; type: biochemical
T1 construct: gene CHLRE_01g015000v5; N-terminal His6 tag, E. coli LEMO-21(DE3), Ni-NTA; hexamer
T1 sequence (A8HPI1 44-340): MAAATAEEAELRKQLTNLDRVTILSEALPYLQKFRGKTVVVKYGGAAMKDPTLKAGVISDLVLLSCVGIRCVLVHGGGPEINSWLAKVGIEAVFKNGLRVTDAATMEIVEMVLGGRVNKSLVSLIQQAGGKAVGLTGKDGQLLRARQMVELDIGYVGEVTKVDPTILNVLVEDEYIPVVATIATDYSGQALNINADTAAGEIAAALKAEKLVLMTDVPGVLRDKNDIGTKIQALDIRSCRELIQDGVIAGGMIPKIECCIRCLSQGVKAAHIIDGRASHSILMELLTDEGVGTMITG

CrPII-CrNAGK = target: T2, CrPII-CrNAGK (Chlamydomonas reinhardtii, UniProt A8HPI1); assay: as above; type: biochemical; conditions: read-out: Arg-IC50
T2 construct: gene CHLRE_01g015000v5; His6-CrNAGK and CrPII with C-terminal Strep tag, mixed equimolar; E. coli expressed; with Nitrogen regulatory protein P-II, chloroplastic (PII signal transducer)

CrPII-PpaNAGK complex = target: T3, CrPII-PpaNAGK complex (Polytomella parva, UniProt A0A2K3DLS9+A6XGV3); assay: as above; type: biochemical
T3 construct: heterologous two-species complex, mixed equimolar: His6-PpaNAGK from residue 41 and CrPII with C-terminal Strep tag; NAGK holds arginine, PII holds 2-oxoglutarate

PpaPII-CrNAGK complex [1] = target: T4, PpaPII-CrNAGK complex; assay: as above; type: biochemical, Chlamydomonas reinhardtii (NAGK); Polytomella parva (PII); conditions: 50 mM NAG, 5 mM ATP, 20 mM MgCl2, pH 7.5; with PpaPII, no Gln; allosteric site of NAGK; unit implied in the sentence
T4 construct: gene NAGK; heterologous two-species complex, mixed equimolar: His6-CrNAGK and PpaPII from residue 50 with C-terminal Strep tag; NAGK holds arginine, PII holds glutamine

PpaPII-CrNAGK complex [2] = target: T4, PpaPII-CrNAGK complex; assay: as above; type: biochemical, Chlamydomonas reinhardtii (NAGK); Polytomella parva (PII); conditions: activation of complex inhibited by 0.12 mM arginine; 50 mM NAG, 5 mM ATP, pH 7.5; Gln site in PII Q-loop, allosteric
[3] = target: Chlamydomonas reinhardtii NAGK protein (Chlamydomonas reinhardtii); assay: SEC-MALS; Superose 6 Increase 10/300 GL; 10 mM Tris pH 7.8, 300 mM NaCl, 2 mM MgCl2, 0.02% NaN3, 2% glycerol; proteins alone or PII mixed in excess with NAGK (4 : 1 monomeric concentrations), with or without 5 mM glutamine; fractions checked by SDS/PAGE
[4] = target: Chlamydomonas reinhardtii NAGK protein (Chlamydomonas reinhardtii); assay: SPR; His6-NAGK immobilised on a Ni2+-loaded NTA chip (FC2), strep-tagged PII injected as analyte (50-1000 nM), 25 °C, HBS (10 mM HEPES, 150 mM NaCl, 2 mM MgCl2, 0.005% NP-40, pH 7.5), FC2-FC1; without effector molecules; Kd estimated from ΔRU
[5] = target: Polytomella parva N-acetyl-L-glutamate kinase (Polytomella parva) (UniProt A6XGV3); assay: as above
[6] = target: Polytomella parva PII protein (Polytomella parva); assay: SEC-MALS; Superose 6 Increase 10/300 GL; 10 mM Tris pH 7.8, 300 mM NaCl, 2 mM MgCl2, 0.02% NaN3, 2% glycerol; proteins alone or PII mixed in excess with NAGK (4 : 1 monomeric concentrations), with or without 5 mM glutamine; fractions checked by SDS/PAGE
purified protein = substrate: CC(=O)N[C@@H](CCC(=O)O)C(=O)O; assay: purified protein; type: biochemical, Polytomella parva; conditions: 5 mM ATP, 20 mM MgCl2, 50 mM KCl, 50 mM imidazole pH 7.5, no arginine, no PII
[7] = target: the molecule itself; assay: SEC-MALS; Superose 6 Increase 10/300 GL; 10 mM Tris pH 7.8, 300 mM NaCl, 2 mM MgCl2, 0.02% NaN3, 2% glycerol; proteins alone or PII mixed in excess with NAGK (4 : 1 monomeric concentrations), with or without 5 mM glutamine; fractions checked by SDS/PAGE

T3 sequence (A0A2K3DLS9 63-205, one chain of several): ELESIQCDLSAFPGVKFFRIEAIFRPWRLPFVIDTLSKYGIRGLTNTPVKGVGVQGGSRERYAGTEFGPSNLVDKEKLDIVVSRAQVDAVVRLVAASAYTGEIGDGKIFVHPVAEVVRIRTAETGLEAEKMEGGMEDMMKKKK

Molecule: N=C(N)NCCC[C@H](N)C(=O)O [arginine]
- IC50 (CrNAGK): 120 ± 30 µM
- IC50 (CrPII-CrNAGK): 250 ± 10 µM
- IC50 (CrPII-PpaNAGK complex): 680 ± 150 µM
- IC50 (PpaPII-CrNAGK complex [1]): 70 ± 10 µM

- EC50 (PpaPII-CrNAGK complex [2]): 1100 µM
Molecule: NC(=O)CC[C@H](N)C(=O)O [glutamine]

- stoichiometry N [3]: 6
Molecule: Chlamydomonas reinhardtii NAGK protein (enzyme)

- Kd [4]: 0.0863 µM
- Kd [5]: 0.0938 µM
- percent of PpaPII-PpaNAGK complex dissociation from the sensor chip at 330 sec after the end of the injection phase (RU at 110 sec taken as 100%) [5]: 60.7%
- percent of PpaPII-PpaNAGK complex dissociation from the sensor chip at 660 sec after the end of the injection phase (RU at 110 sec taken as 100%) [5]: 41.9%
- stoichiometry N [6]: 3
Molecule: Polytomella parva PII protein (natural protein)

B1: Polytomella parva N-acetyl-L-glutamate kinase (enzyme, UniProt A6XGV3 41-329, looked up)
chain: TSDKKELTNLDRVTILSEALPYLQKFRGKTIVIKYGGAAMKDPTLKAGVITDLVLLNCVGIRTVLVHGGGPEINSWLSKVGIKPNFKNGLRVTDSATMDIVEMVLGGRVNKSLVSLIQQAGGRGVGLTGKDGQLLKARQMTELDIGHVGEVTKVDPTILNVMVNDGYIPVVATIASDPAGQALNINADTAAGEIAAALKAKKLVLMTDVPGVLRDKNDIKTKIHSLDIRGCRELIKDGIIAGGMIPKIECCIRCLAQGVDAAHIVDGRAKHSILMELLTDEGVGTMITG
notes: the full-length polypeptide has 329 amino acids; The discussion gives the transit peptide as 1-21, the results and methods as 1-40; also called PpaNAGK; NAGK; not shown: His6, N-terminal, kept
- Km (purified protein): 2350 ± 220 µM
- kcat (purified protein): 211.5 ± 4.1 s⁻¹
- stoichiometry N [7]: 6
